From PMC1807967
Read-outs that look alike come from different tables or passages of the source.

How the values were obtained:
Assay in all cases: EMSA
[1] = molecular target: T1, N60-ttMutS2 (Smr-deleted) (Thermus thermophilus, UniProt Q5SHT5 1-540)
T1 sequence: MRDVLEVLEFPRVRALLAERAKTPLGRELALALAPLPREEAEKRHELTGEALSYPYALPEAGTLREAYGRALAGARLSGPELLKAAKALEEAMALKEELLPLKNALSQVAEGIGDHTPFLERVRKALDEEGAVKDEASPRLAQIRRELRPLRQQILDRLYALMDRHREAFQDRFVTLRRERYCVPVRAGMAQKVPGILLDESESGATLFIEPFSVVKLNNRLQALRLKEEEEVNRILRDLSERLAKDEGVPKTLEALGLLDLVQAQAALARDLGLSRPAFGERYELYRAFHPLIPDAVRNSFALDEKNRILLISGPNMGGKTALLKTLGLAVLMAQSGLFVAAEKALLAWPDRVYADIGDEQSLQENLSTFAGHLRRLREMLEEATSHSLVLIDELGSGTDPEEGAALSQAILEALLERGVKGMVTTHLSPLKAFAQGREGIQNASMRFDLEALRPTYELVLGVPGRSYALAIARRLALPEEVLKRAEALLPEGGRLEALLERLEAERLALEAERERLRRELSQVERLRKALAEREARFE

[2] = molecular target: T2, ttMutS2 (Thermus thermophilus, UniProt Q5SHT5 1-744)
T2 sequence: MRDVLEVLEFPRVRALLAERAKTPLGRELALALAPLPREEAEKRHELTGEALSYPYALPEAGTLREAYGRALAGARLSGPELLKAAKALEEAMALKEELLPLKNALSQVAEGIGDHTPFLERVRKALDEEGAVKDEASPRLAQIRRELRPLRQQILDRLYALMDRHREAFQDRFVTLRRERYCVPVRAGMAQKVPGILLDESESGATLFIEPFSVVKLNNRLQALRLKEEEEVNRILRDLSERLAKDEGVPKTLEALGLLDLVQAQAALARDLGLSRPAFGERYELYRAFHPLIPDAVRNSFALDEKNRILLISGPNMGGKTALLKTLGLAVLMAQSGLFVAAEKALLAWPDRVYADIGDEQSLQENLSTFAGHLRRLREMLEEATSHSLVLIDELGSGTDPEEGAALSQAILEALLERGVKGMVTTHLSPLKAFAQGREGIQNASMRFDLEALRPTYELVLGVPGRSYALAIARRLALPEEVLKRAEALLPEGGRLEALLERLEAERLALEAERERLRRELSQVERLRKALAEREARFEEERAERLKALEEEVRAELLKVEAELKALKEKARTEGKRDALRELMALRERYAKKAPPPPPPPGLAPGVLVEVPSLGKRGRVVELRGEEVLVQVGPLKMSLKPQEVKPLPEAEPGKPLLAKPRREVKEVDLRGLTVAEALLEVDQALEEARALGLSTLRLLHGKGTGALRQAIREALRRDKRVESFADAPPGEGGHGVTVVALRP

[3] = molecular target: T3, ttSmr (Thermus thermophilus, UniProt Q5SHT5 621-744)
T3 sequence: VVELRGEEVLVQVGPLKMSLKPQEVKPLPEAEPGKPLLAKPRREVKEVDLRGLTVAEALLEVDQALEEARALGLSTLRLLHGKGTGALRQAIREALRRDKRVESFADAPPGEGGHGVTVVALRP

[4] = molecular target: T2, ttMutS2; remark: listed apart in the source
[5] = molecular target: T1, N60-ttMutS2 (Smr-deleted); remark: listed apart in the source

B1: 20 bp dsDNA (dsDNA)
DNA 1: ATGTGAATCAGTATGGTTTC
DNA 2: GAAACCATACTGATTCACAT
binding result [1]: binds
binding result [2]: binds

B2: 20mer ssDNA (ssDNA)
DNA: ATGTGAATCAGTATGGTTTC
binding result [3]: binds
binding result [4]: no binding
binding result [5]: no binding
